{"source": "patent US20190194276A1", "about": "(MAYO FOUNDATION FOR MEDICAL EDUCATION AND RESEARCH, published 2019)", "binders": {"B1": {"name": "Flag-FOXO1-A3 (T24A/S256A/S319A) (other, human, UniProt Q12778 1-655, looked up)", "chain": "MAEAPQVVEIDPDFEPLPRPRSCAWPLPRPEFSQSNSATSSPAPSGSAAANPDAAAGLPSASAAAVSADFMSNLSLLEESEDFPQAPGSVAAAVAAAAAAAATGGLCGDFQGPEAGCLHPAPPQPPPPGPLSQHPPVPPAAAGPLAGQPRKSSSSRRNAWGNLSYADLITKAIESSAEKRLTLSQIYEWMVKSVPYFKDKGDSNSSAGWKNSIRHNLSLHSKFIRVQNEGTGKSSWWMLNPEGGKSGKSPRRRAAAMDNNSKFAKSRSRAAKKKASLQSGQEGAGDSPGSQFSKWPASPGSHSNDDFDNWSTFRPRTSANASTISGRLSPIMTEQDDLGEGDVHSMVYPPSAAKMASTLPSLSEISNPENMENLLDNLNLLSSPTSLTVSTQSSPGTMMQQTPCYSFAPPNTSLNSPSPNYQKYTYGQSSMSPLPQMPIQTLQDNKSSYGGMSQYNCAPGLLKELLTSDSPPHNDIMTPVDPGVAQPNSRVLGQNVMMGPNSVMSTYGSQASHNKMMNPSSHTHPGHAQQTSAVNGRPLPHTVSTMPHTSGMNRLTQVKTPVQVPLPHPMQMSALGGYSSVSSCNGYGRMGLLHQEKLPSDLDGMFIERLDCDMESIIRNDLMDGDTLDFNFDNVLPNQSFPHSVKTTTHSWVSG", "notes": "Expressed in LNCaP cells; also called triple mutant; not shown: Flag tag"}, "B2": {"name": "Flag-FOXO1-S256A (other, human, UniProt Q12778 1-655, looked up)", "chain": "B1 chain with A24T, A319S", "notes": "Expressed in LNCaP cells; not shown: Flag tag"}, "B3": {"name": "Flag-FOXO1-S319A (other, human, UniProt Q12778 1-655, looked up)", "chain": "B1 chain with A24T, A256S", "notes": "as for B2"}, "B4": {"name": "Flag-FOXO1-T24A (other, human, UniProt Q12778 1-655, looked up)", "chain": "B1 chain with A256S, A319S", "notes": "as for B2"}, "B5": {"name": "Flag-FOXO1-537 (other, human, UniProt Q12778 1-537, looked up)", "chain": "MAEAPQVVEIDPDFEPLPRPRSCTWPLPRPEFSQSNSATSSPAPSGSAAANPDAAAGLPSASAAAVSADFMSNLSLLEESEDFPQAPGSVAAAVAAAAAAAATGGLCGDFQGPEAGCLHPAPPQPPPPGPLSQHPPVPPAAAGPLAGQPRKSSSSRRNAWGNLSYADLITKAIESSAEKRLTLSQIYEWMVKSVPYFKDKGDSNSSAGWKNSIRRNLSLHSKFIRVQNEGTGKSSWWMLNPEGGKSGKSPRRRAASMDNNSKFAKSRSRAAKKKASLQSGQEGAGDSPGSQFSKWPASPGSHSNDDFDNWSTFRPRTSSNASTISGRLSPIMTEQDDLGEGDVHSMVYPPSAAKMASTLPSLSEISNPENMENLLDNLNLLSSPTSLTVSTQSSPGTMMQQTPCYSFAPPNTSLNSPSPNYQKYTYGQSSMSPLPQMPIQTLQDNKSSYGGMSQYNCAPGLLKELLTSDSPPHNDIMTPVDPGVAQPNSRVLGQNVMMGPNSVMSTYGSQASHNKMMNPSSHTHPGHAQQTSAVNGR", "notes": "Transcription-deficient mutant that can be phosphorylated by AKT; not shown: Flag tag"}, "B6": {"name": "SFB-FOXO1-IQBP S319 (peptide, not shown: small tags and cut ends)", "peptide": "NDDFDNWSTFRPRTSSNASTISGRLSPIMT", "modifications": "also: SFB tag, position not given here", "notes": "Expressed in LNCaP cells; also called wild-type counterpart"}, "B7": {"name": "SFB-FOXO1-IQBP S319D (peptide, not shown: small tags and cut ends)", "peptide": "B6 peptide with S16D", "modifications": "also: SFB tag, position not given here", "notes": "Expressed in LNCaP cells"}, "B8": {"name": "SFB-FOXO1-IQBP S319E (peptide, not shown: small tags and cut ends)", "peptide": "B6 peptide with S16E", "modifications": "also: SFB tag, position not given here", "notes": "Expressed in LNCaP cells; also called Flag-tagged FOXO1 IQBP(SE)"}, "B9": {"name": "HA-FOXO3 (other, UniProt O43524 1-673, looked up)", "chain": "MAEAPASPAPLSPLEVELDPEFEPQSRPRSCTWPLQRPELQASPAKPSGETAADSMIPEEEDDEDDEDGGGRAGSAMAIGGGGGSGTLGSGLLLEDSARVLAPGGQDPGSGPATAAGGLSGGTQALLQPQQPLPPPQPGAAGGSGQPRKCSSRRNAWGNLSYADLITRAIESSPDKRLTLSQIYEWMVRCVPYFKDKGDSNSSAGWKNSIRHNLSLHSRFMRVQNEGTGKSSWWIINPDGGKSGKAPRRRAVSMDNSNKYTKSRGRAAKKKAALQTAPESADDSPSQLSKWPGSPTSRSSDELDAWTDFRSRTNSNASTVSGRLSPIMASTELDEVQDDDAPLSPMLYSSSASLSPSVSKPCTVELPRLTDMAGTMNLNDGLTENLMDDLLDNITLPPSQPSPTGGLMQRSSSFPYTTKGSGLGSPTSSFNSTVFGPSSLNSLRQSPMQTIQENKPATFSSMSHYGNQTLQDLLTSDSLSHSDVMMTQSDPLMSQASTAVSAQNSRRNVMLRNDPMMSFAAQPNQGSLVNQNLLHHQHQTQGALGGSRALSNSVSNMGLSESSSLGSAKHQQQSPVSQSMQTLSDSLSGSSLYSTSANLPVMGHEKFPSDLDLDMFNGSLECDMESIIRSELMDADGLDFNFDSLISTQNVVGLNVGNFTGAKQASSQSWVPG", "notes": "Expressed in LNCaP cells; not shown: HA tag"}, "B10": {"name": "HA-FOXO4 (other, UniProt P98177 1-505, looked up)", "chain": "MDPGNENSATEAAAIIDLDPDFEPQSRPRSCTWPLPRPEIANQPSEPPEVEPDLGEKVHTEGRSEPILLPSRLPEPAGGPQPGILGAVTGPRKGGSRRNAWGNQSYAELISQAIESAPEKRLTLAQIYEWMVRTVPYFKDKGDSNSSAGWKNSIRHNLSLHSKFIKVHNEATGKSSWWMLNPEGGKSGKAPRRRAASMDSSSKLLRGRSKAPKKKPSVLPAPPEGATPTSPVGHFAKWSGSPCSRNREEADMWTTFRPRSSSNASSVSTRLSPLRPESEVLAEEIPASVSSYAGGVPPTLNEGLELLDGLNLTSSHSLLSRSGLSGFSLQHPGVTGPLHTYSSSLFSPAEGPLSAGEGCFSSSQALEALLTSDTPPPPADVLMTQVDPILSQAPTLLLLGGLPSSSKLATGVGLCPKPLEAPGPSSLVPTLSMIAPPPVMASAPIPKALGTPVLTPPTEAASQDRMPQDLDLDMYMENLECDMDNIISDLMDEGEGLDFNFEPDP", "notes": "as for B9"}, "B11": {"name": "SFB-tagged FOXO1 (other, human, UniProt Q12778 1-655, looked up)", "chain": "B1 chain with A24T, A256S, A319S", "notes": "also called SFB-FOXO1; not shown: about 12 kDa, 119 amino acid"}, "B12": {"name": "GST-FOXO1-1 (amino acids 1-167) (other, human, UniProt Q12778 1-167, looked up, not shown: a dimerising Fc or GST)", "chain": "MAEAPQVVEIDPDFEPLPRPRSCTWPLPRPEFSQSNSATSSPAPSGSAAANPDAAAGLPSASAAAVSADFMSNLSLLEESEDFPQAPGSVAAAVAAAAAAAATGGLCGDFQGPEAGCLHPAPPQPPPPGPLSQHPPVPPAAAGPLAGQPRKSSSSRRNAWGNLSYAD", "notes": "range 1-167"}, "B13": {"name": "GST-FOXO1-2 (amino acids 149-267) (other, human, UniProt Q12778 149-267, looked up, not shown: a dimerising Fc or GST)", "chain": "PRKSSSSRRNAWGNLSYADLITKAIESSAEKRLTLSQIYEWMVKSVPYFKDKGDSNSSAGWKNSIRHNLSLHSKFIRVQNEGTGKSSWWMLNPEGGKSGKSPRRRAASMDNNSKFAKSR", "notes": "range 149-267"}, "B14": {"name": "GST-FOXO1-4 (amino acids 354-503) (other, human, UniProt Q12778 354-503, looked up, not shown: a dimerising Fc or GST)", "chain": "KMASTLPSLSEISNPENMENLLDNLNLLSSPTSLTVSTQSSPGTMMQQTPCYSFAPPNTSLNSPSPNYQKYTYGQSSMSPLPQMPIQTLQDNKSSYGGMSQYNCAPGLLKELLTSDSPPHNDIMTPVDPGVAQPNSRVLGQNVMMGPNSV", "notes": "range 354-503"}, "B15": {"name": "GST-FOXO1-5 (amino acids 488-655) (other, human, UniProt Q12778 488-655, looked up, not shown: a dimerising Fc or GST)", "chain": "NSRVLGQNVMMGPNSVMSTYGSQASHNKMMNPSSHTHPGHAQQTSAVNGRPLPHTVSTMPHTSGMNRLTQVKTPVQVPLPHPMQMSALGGYSSVSSCNGYGRMGLLHQEKLPSDLDGMFIERLDCDMESIIRNDLMDGDTLDFNFDNVLPNQSFPHSVKTTTHSWVSG", "notes": "range 488-655"}}, "key": {"endogenous IQGAP1 [1]": {"biological_target": "T1, endogenous IQGAP1 (human, UniProt P46940 2-1657)", "T1 construct": "also called cellular IQGAP1", "T1 sequence (P46940 2-1657 limits assumed)": "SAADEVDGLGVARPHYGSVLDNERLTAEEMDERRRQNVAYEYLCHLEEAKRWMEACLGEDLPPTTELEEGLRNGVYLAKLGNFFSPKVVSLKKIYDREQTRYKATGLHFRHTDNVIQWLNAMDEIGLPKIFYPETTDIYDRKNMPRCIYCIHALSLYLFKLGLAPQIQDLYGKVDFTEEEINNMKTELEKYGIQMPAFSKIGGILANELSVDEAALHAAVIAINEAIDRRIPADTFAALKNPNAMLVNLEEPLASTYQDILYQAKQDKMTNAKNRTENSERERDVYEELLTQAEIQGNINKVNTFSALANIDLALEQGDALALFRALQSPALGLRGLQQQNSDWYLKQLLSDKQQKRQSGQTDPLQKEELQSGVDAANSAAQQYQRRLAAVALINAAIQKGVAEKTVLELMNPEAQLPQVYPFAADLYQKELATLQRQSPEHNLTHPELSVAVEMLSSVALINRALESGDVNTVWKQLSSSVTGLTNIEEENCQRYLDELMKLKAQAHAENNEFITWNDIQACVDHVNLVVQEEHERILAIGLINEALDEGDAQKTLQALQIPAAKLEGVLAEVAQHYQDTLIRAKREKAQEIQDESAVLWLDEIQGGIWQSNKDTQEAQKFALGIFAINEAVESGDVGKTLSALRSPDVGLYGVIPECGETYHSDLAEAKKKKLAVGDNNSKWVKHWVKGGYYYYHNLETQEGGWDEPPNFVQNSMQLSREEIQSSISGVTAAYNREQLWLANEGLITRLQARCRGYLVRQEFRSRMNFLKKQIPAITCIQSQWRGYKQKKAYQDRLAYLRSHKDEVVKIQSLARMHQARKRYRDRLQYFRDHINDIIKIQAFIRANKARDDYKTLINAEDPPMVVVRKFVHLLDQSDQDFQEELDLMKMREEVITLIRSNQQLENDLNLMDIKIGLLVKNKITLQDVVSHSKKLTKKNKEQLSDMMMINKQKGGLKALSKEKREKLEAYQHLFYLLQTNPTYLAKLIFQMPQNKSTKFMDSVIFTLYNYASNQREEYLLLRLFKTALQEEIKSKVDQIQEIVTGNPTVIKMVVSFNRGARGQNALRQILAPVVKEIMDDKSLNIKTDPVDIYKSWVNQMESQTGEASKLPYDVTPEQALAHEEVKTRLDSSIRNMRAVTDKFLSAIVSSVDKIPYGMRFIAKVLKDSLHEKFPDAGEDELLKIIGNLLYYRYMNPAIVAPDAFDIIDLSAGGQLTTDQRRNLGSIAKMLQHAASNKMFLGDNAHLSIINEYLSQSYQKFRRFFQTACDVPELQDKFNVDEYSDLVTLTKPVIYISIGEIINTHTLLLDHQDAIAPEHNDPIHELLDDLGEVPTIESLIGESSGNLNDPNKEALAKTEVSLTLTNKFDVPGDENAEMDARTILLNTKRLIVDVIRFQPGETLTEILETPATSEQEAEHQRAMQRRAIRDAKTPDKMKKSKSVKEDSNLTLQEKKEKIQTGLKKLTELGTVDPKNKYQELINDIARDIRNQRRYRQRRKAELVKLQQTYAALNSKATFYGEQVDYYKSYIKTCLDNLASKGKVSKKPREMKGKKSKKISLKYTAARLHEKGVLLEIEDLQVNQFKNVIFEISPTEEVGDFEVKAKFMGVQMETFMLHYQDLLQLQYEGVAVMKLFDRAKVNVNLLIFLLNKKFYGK", "assay": "co-IP with anti-Flag from transfected LNCaP cells, Western blot"}, "endogenous IQGAP1 [2]": {"biological_target": "T1, endogenous IQGAP1", "assay": "co-IP with anti-Flag from LNCaP cells expressing SFB-tagged peptides, Western blot"}, "endogenous IQGAP1 [3]": {"biological_target": "T1, endogenous IQGAP1", "assay": "co-IP with anti-IQGAP1 from LNCaP cells transfected with HA-FOXO3, Western blot"}, "endogenous IQGAP1 [4]": {"biological_target": "T1, endogenous IQGAP1", "assay": "co-IP with anti-IQGAP1 from LNCaP cells transfected with HA-FOXO4, Western blot"}, "endogenous IQGAP1 [5]": {"biological_target": "T1, endogenous IQGAP1", "assay": "TAP of SFB-FOXO1 from 293T cells, LC-MS/MS", "description": "24 hours after transfection, cells were lysed by NETN buffer (20 mM Tris-HCl, pH8.0, 100 mM NaCl, 1 mM EDTA, 0.5% Nonidet P-40) with 50 mM β-glycerophosphate, 10 mM NaF, and 1 μg/mL pepstatin-A at 4° C. for 3 hours. The supernatants were incubated with streptavidin sepharose beads (GE) at 4° C. overnight. The beads were washed with NETN buffer for three times and then eluted by 2 mM biotin (Sigma) for 1 hour at 4° C. twice. The elution products were incubated with S-protein agarose beads (Novagen) overnight at 4° C. and after three times wash the products bound to S-protein agarose beads were subjected to SDS-PAGE and visualized by silver staining or Code-blue staining.\nBriefly, excised gel bands were cut into approximately 1 mm³ pieces. […] Gel pieces were washed and dehydrated with acetonitrile for 10 minutes followed by removal of acetonitrile. Pieces were then completely dried in a speed-vac. […] After 45 minutes, the excess trypsin solution was removed and replaced with 50 mM ammonium bicarbonate solution to just cover the gel pieces. Samples were then placed in a 37° C. room overnight. Peptides were later extracted by removing the ammonium bicarbonate solution, followed by one wash with a solution containing 50% acetonitrile and 1% formic acid. The extracts were then dried in a speed-vac (˜1 hour). The samples were then stored at 4° C. until analysis."}, "endogenous IQGAP1 [6]": {"biological_target": "T1, endogenous IQGAP1", "assay": "GST pull-down from DU145 whole cell lysate, Western blot"}}, "note": "Positions count from the first letter of the chain named. In names and notes the source's numbering stands. Ends that are not written are not given here."}
{"binder": "B1", "values": [{"measurement": "binding result", "setting": "endogenous IQGAP1 [1]", "value": "no binding"}]}
{"binder": "B2", "values": [{"measurement": "binding result", "setting": "endogenous IQGAP1 [1]", "value": "binds"}]}
{"binder": "B3", "values": [{"measurement": "binding result", "setting": "endogenous IQGAP1 [1]", "value": "no binding"}]}
{"binder": "B4", "values": [{"measurement": "binding result", "setting": "endogenous IQGAP1 [1]", "value": "binds"}]}
{"binder": "B5", "values": [{"measurement": "binding result", "setting": "endogenous IQGAP1 [1]", "value": "binds"}]}
{"binder": "B6", "values": [{"measurement": "binding result", "setting": "endogenous IQGAP1 [2]", "value": "binds"}]}
{"binder": "B7", "values": [{"measurement": "binding result", "setting": "endogenous IQGAP1 [2]", "value": "binds"}]}
{"binder": "B8", "values": [{"measurement": "binding result", "setting": "endogenous IQGAP1 [2]", "value": "binds"}]}
{"binder": "B9", "values": [{"measurement": "binding result", "setting": "endogenous IQGAP1 [3]", "value": "binds"}]}
{"binder": "B10", "values": [{"measurement": "binding result", "setting": "endogenous IQGAP1 [4]", "value": "binds"}]}
{"binder": "B11", "values": [{"measurement": "binding result", "setting": "endogenous IQGAP1 [5]", "value": "binds"}]}
{"binder": "B12", "values": [{"measurement": "binding result", "setting": "endogenous IQGAP1 [6]", "value": "no binding"}]}
{"binder": "B13", "values": [{"measurement": "binding result", "setting": "endogenous IQGAP1 [6]", "value": "no binding"}]}
{"binder": "B14", "values": [{"measurement": "binding result", "setting": "endogenous IQGAP1 [6]", "value": "no binding"}]}
{"binder": "B15", "values": [{"measurement": "binding result", "setting": "endogenous IQGAP1 [6]", "value": "no binding"}]}
